Source: US7063946B2, “Methods, reagents, kits and apparatus for protein function analysis” (Meso Scale Technologies, LLC., priority 2001, dated 2006)
Blank lines part the entries; values can stand above or below the molecule they belong to.

How the values were obtained:
[1] = target: T1, IkBa peptide [SEQ ID No. 1] (Homo sapiens, UniProt P25963); test: Phosphopeptide binding assay, peptide-BSA coated IPR plate
T1 construct: two phosphoserines in the DSGLDS motif (chemical modification); purchased New England Peptide, Fitchburg Mass; host or cells: chemical synthesis
From the text: A phosphopeptide derived from the IkBa degradation motif (SEQ ID NO: 1) and a phosphopeptide derived from c-Myc (SEQ ID NO: 4) were chemically synthesized (New England Peptide, Fitchburg Mass.) with the following sequences respectively:
A maleimide pre-activated BSA (Pierce, Pittsburgh Pa.), which contains estimated 17 active maleimide groups on the protein surface, was used as the protein carrier, and was supplied as a lyophilized preparation. Coupling of the IkBa peptide (SEQ ID NO: 1) to the pre-activated BSA was carried out with 2 mg BSA (30 nmol) and 17 equivalents of the 25 residue phosphopeptide in 400 μl PBS. The reaction was terminated with 2 mM […] after incubation at room temperature for 30 minutes. The peptide:BSA conjugate was then purified on PD-10 gel filtration column to remove uncoupled peptide and analyzed with SDS PAGE to monitor the coupling reaction. […] After coupling and purification, the column fractions containing the peptide:BSA conjugates were pooled and the protein concentration of the pooled samples was determined by BCA assay (Pierce, Pittsburgh Pa.). NaN3, (0.02%) was added to the final peptide:BSA conjugate sample for long term storage at 4° C. […]
Two βTRCP genes, βTRCP1 and βTRCP2, are present in the human genome on chromosome 5 and 10, respectively. […] The ECL signals were measured using an imaging plate reader (IPR).

[2] = target: T2, EGFR (Homo sapiens, UniProt P00533); test: EGFR binding assay, bound EGFR detected by its tyrosine kinase activity towards pEY
T2 construct: autophosphorylated tyrosines (self-phosphorylated with ATP before use); purchased Sigma Chemical Co, MO
Description: Proteins were produced in an in vitro transcription and translation reaction using 40–100 ng of plasmid DNA. […] The unbound components of the reaction containing endogenous kinases were removed by three washes with TT-buffer (25 mM Tris-HCl buffer pH 7.4 and 0.004% Triton), two five minutes washings with high-salt wash buffer (25 mM Tris-HCl buffer pH 7.4, 0.004% Triton, 1M NaCl and 5 mM DTT) and 3 more washes with TT-buffer. […] The unbound EGFR was washed by 4 times washing with TT-buffer (25 mM Tris-HCl buffer pH 7.4 and 0.004% Triton). The amount of EGFR bound to the reticulocyte lysate expressed protein was determined by detecting the kinase activity of EGFR. A tyrosine kinase substrate, 5 nM pEY (poly Glu-Tyr, Sigma, MO) was added in a 50 μl reaction containing 5 mM MgCl2, 5 mM MnCl2, 100 μM ATP, 25 mM Tris-HCl buffer pH 7.4, 0.05 mM Na3VO4, 0.004% TritonX-100, 2 mM DTT and EDTA-free protease inhibitor (Roche Molecular Biochemicals). This mixture was incubated with shaking at room temperature for 1 or 12 hours to allow phosphorylation of the pEY substrate by the EGFR. Following this incubation 45 μl of this mixture was transferred to a SA—NPT IPR plate coated with biotinylated anti-phosphotyrosine antibody (PY20, Zymed labs, CA) followed by incubation for 30 minutes at room temperature to allow the binding of the phosphorylated pEY substrate to the PY20 coated NPT plate. Following this binding step 50 ng Sulfo-TAG labeled anti-phosphotyrosine in buffer containing 25 mM Tris-HCl buffer pH 7.4, 5 mM MgCl2, 0.05 mM Na3VO4, 0.004% TritonX-100, 2 mM DTT and 0.05% IgG was added followed by incubation at room temperature for 30 mm.
The unbound reagents were removed by one time washing with TT-buffer (25 mM Tris-HCl buffer pH 7.4 and 0.004% Triton), and the TAG label was detected in presence of 150 μl IPR assay buffer (0.4 mM Gly-Gly buffer, pH 7.8, 1 mM EDTA, 0.1 M TPA). The ECL signals were measured using an imaging plate reader.

[3] = target: T3, EGFR-pY992 (SEQ ID NO: 5) (Homo sapiens, UniProt P00533); test: Single-well 4-spot assay for multiple peptide-protein interactions; type: binding; details: 4-spot plate
T3 construct: phosphotyrosine at Tyr992 (chemical modification); purchased New England Peptide, Fitchburg Mass; host or cells: chemical synthesis
From the text: Four phosphopeptides and their cognate binding proteins (Table 14) were selected for an integrated assay of multiple peptide-protein interaction in 4-spot Multi-Array plates. The IkBa-24pp peptide and its binding protein, βTRCP, are described in Example 10. […] These phosphotyrosine containing peptides are recognized by different adaptor or effecter proteins of the receptor tyrosine kinase signaling pathway.
These four peptides were coupled to BSA carrier protein through cystine residue. After purification on PD-10 gel filtration columns, the peptide-BSA conjugates were then deposited on the assay domains of a 4-spot multi-array IPR plate (i.e., in one of the four exposed regions of working electrode defined by the dielectric layer) with an automated micro-dispensing system (Bio-Dot Dispenser, Bio-Dot, Irvine Calif.). […] These plates are dried then used or stored under desiccated conditions. A few hours prior to usage the plates were rehydrated and blocked with 3% BSA in PBS. […] The in vitro translated and biotin-labeled proteins were then assayed in the 4-spot multi-array IPR plates under conditions described in Example 10.

T1 sequence (P25963 with tags, fused parts or gaps limits assumed): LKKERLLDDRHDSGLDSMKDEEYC

Average ECL signal, IkBa peptide [SEQ ID No. 1] [1]: 21501
B1: 4237375: IMAGE clone protein: βTRCP2 (protein)
chain: MEPDSVIEDKTIELMCSVPRSLWLGCANLVESMCALSCLQSMPSVRCLQISNGTSSVIVSRKRPSEGNYQKEKDLCIKYFDQWSESDQVEFVEHLISRMCHYQHGHINSYLKPMLQRDFITALPEQGLDHIAENILSYLDARSLCAAELVCKEWQRVISEGMLWKKLIERMVRTDPLWKGLSERRGWDQYLFKNRPTDGPPNSFYRSLYPKIIQDIETIESNWRCGRHNLQRIQCRSENSKGVYCLQYDDEKIISGLRDNSIKIWDKTSLECLKVLTGHTGSVLCLQYDERVIVTGSSDSTVRVWDVNTGEVLNTLIHHNEAVLHLRFSNGLMVTCSKDRSIAVWDMASATDITLRRVLVGHRAAVNVVDFDDKYIVSASGDRTIKVWSTSTCEFVRTLNGHKRGIACLQYRDRLVVSGSSDNTIRLWDIECGACLRVLEGHEELVRCIRFDNKRIVSGAYDGKIKVWDLQAALDPRAPASTLCLRTLVEHSGRVFRLQFDEFQIISSSHDDTILIWDFLNVPPSAQNETRSPSRTYTYISR

ECL signal ([2]; +EGFR, reaction time 1 hr): 17,966 | ECL signal ([2]; +EGFR, reaction time 12 hr): 39,767 | ECL signal ([2]; no EGFR): 1,695 | ECL signal, spot 4 EGFR-pY992 [3]: 1404
B2: 4419252: IMAGE clone protein: PLCγ (protein)
chain: MAGAASPCANGCGPGAPSDAEVLHLCRSLEVGTVMTLFYSKKSQRPERKTFQVKLETRQITWSRGADKIEGAIDIREIKEIRPGKTSRDFDRYQEDPAFRPDQSHCFVILYGMEFRLKTLSLQATSEDEVNMWIKGLTWLMEDTLQAPTPLQIERWLRKQFYSVDRNREDRISAKDLKNMLSQVNYRVPNMRFLRERLTDLEQRSGDITYGQFAQLYRSLMYSAQKTMDLPFLEASTLRAGERPELCRVSLPEFQQFLLDYQGELWAVDRLQVQEFMLSFLRDPLREIEEPYFFLDEFVTFLFSKENSVWNSQLDAVCPDTMNNPLSHYWISSSHNTYLTGDQFSSESSLEAYARCLRMGCRCIELDCWDGPDGMPVIYHGHTLTTKIKFSDVLHTIKEHAFVASEYPVILSIEDHCSIAQQRNMAQYFKKVLGDTLLTKPVEISADGLPSPNQLKRKILIKHKKLAEGSAYEEVPTSMMYSENDISNSIKNGILYLEDPVNHEWYPHYFVLTSSKIYYSEETSSDQGNEDEEEPKEVSSSTELHSNEKWFHGKLGAGRDGRHIAERLLTEYCIETGAPDGSFLVRESETFVGDYTLSFWRNGKVQHCRIHSRQDAGTPKFFLTDNLVFDSLYDLITHYQQVPLRCNEFEMRLSEPVPQTNAHESKEWYHASLTRAQAEHMLMRVPRDGAFLVRKRNEPNSYAISFRAEGKIKHCRVQQEGQTVMLGNSEFDSLVDLISYYEKHPLYRKMKLRYPINEEALEKIGTAEPDYGALYEGRNPGFYVEANPMPTFKCAVKALFDYKAQREDELTFIKSAIIQNVEKQEGGWWRGDYGGKKQLWFPSNYVEEMVNPVALEPEREHLDENSPLGDLLRGVLDVPACQIAIRPEGKNNRLFVFSISMASVAHWSLDVAADSQEELQDWVKKIREVAQTADARLTEGKIMERRKKIALELSELVVYCRPVPFDEEKIGTERACYRDMSSFPETKAEKYVNKAKGKKFLQYNRLQLSRIYPKGQRLDSSNYDPLPMWICGSQLVALNFQTPDKPMQMNQALFMTGRHCGYVLQPSTMRDEAFDPFDKSSLRGLEPCAISIEVLGARHLPKNGRGIVCPFVEIEVAGAEYDSTKQKTEFVVDNGLNPVWPAKPFHFQISNPEFAFLRFVVYEEDMFSDQNFLAQATFPVKGLKTGYRAVPLKNNYSEDLELASLLIKIDIFPAKENGDLSPFSGTSLRERGSDASGQLFHGRAREGSFESRYQQPFEDFRISQEHLADHFDSRERRAPRRTRVNGDNRL
